Square brackets hold non-standard residues; d marks the D form. Ends that are not written are not given here. pS = N[C@@H](COP(=O)(O)O)C(=O)O
B1: RQInp, unmodified peptide RQISQDVKL derived from adenosine monophosphate deaminase 2 (AMPD2) (peptide)
peptide: RQISQDVKL
notes: stretch of adenosine monophosphate deaminase 2 (AMPD2); also called non-phosphorylated RQI; source: synthetic peptide
B2: RQIp, phosphopeptide RQIpSQDVKL derived from adenosine monophosphate deaminase 2 (AMPD2) (peptide)
peptide: RQI[pS]QDVKL
notes: stretch of adenosine monophosphate deaminase 2 (AMPD2); source: synthetic peptide
B3: RQA_Vnp, unmodified peptide RQASIELPSMAV derived from Lymphocyte Specific Protein 1 (LSP-1) (peptide)
peptide: RQASIELPSMAV
notes: stretch of Lymphocyte Specific Protein 1 (LSP-1); source: synthetic peptide

How the values were obtained:
[1] = target: HLA-A2 (heavy chain with β2-microglobulin) (human | , Heavy-chain limits are not given; taken from the longest deposited entity of this paper (mature 1-276, A*02:01). Bound peptide not included: the test peptide is the partner, and the affinity-assay c); test: radioligand binding; competitive peptide binding assay: test peptide (100,000-fold concentration range, triplicate) displaces a radiolabeled peptide from HLA-A2 (refolded with […]); MHC-peptide complexes captured on plates coated with antibody W6/32; IC50 taken as a reasonable approximation of the dissociation constant; details: both partners purified
[2] = target: HLA-A2 (heavy chain with β2-microglobulin) (human | ); test: as above; details: both partners purified

Row | Binder | Kd [1] [nM] | Kd [2] [nM]
1 | B1 | 1920 | 
2 | B2 |  | 25.5
3 | B3 | 26 | 

Source: paper PMC5589570, “The antigenic identity of human class I MHC phosphopeptides is critically dependent upon phosphorylation status” (Oncotarget, 2017)
